The results in this text go back to US20260193370A1 (SUZHOU SUNCADIA BIOPHARMACEUTICALS, published 2026).

For test [1], the target named is T1, human NGF protein (Sino biological, 11050-HNAC) (human, UniProt P01138 122-241). As to the kind of experiment: cell-based or functional assay.
Test [2] concerns the target T1, human NGF protein (Sino biological, …). The experiment in a line: cell-based or functional assay. The source holds these as a separate data set.

T1 sequence (P01138 122-241 limits assumed): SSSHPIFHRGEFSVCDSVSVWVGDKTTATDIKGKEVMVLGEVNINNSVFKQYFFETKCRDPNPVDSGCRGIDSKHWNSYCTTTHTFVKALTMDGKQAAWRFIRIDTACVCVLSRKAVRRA

B1: Tanezumab (antibody, human IgG2, kappa, V domains shown)
VH: QVQLQESGPGLVKPSETLSLTCTVSGFSLIGYDLNWIRQPPGKGLEWIGIIWGDGTTDYNSAVKSRVTISKDTSKNQFSLKLSSVTAADTAVYYCARGGYWYATSYYFDYWGQGTLVTVSS
VL: DIQMTQSPSSLSASVGDRVTITCRASQSISNNLNWYQQKPGKAPKLLIYYTSRFHSGVPSRFSGSGSGTDFTFTISSLQPEDIATYYCQQEHTLPYTFGQGTKLEIKR
Take B1: the “TF-1 cell proliferation-inhibiting activity, fold relative to bispecific antibody 1” value in test [1] is roughly 4.2 fold. The “TF-1 cell proliferation-inhibiting activity, IC50 (TF-1 cells with human NGF, Cell-titer Glo)” value in test [2] turned out to be 759 pM.
